Columns and labels:
Experiment in all cases: Kinase Profiling Assay
Conditions in all cases: 100 μM
IRR(h) = IRR(h) (Homo sapiens, UniProt P14616); assay type: biochemical
SAPK4(h) = target: T1, SAPK4(h) (Homo sapiens, UniProt O15264); assay type: biochemical
T1 sequence (O15264 1-365): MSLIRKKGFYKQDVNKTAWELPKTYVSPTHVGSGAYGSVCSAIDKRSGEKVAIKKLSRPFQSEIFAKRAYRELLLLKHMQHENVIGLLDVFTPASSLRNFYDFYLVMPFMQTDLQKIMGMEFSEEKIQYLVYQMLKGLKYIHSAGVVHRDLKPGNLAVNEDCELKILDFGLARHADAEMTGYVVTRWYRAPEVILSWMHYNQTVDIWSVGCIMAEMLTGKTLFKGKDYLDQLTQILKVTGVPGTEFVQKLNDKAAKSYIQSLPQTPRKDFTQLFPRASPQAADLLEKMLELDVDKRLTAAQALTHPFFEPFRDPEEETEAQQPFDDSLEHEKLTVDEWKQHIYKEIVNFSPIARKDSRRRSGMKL

JAK2(h) = JAK2(h) (Homo sapiens, UniProt O60674); assay type: biochemical
Sequence of JAK2(h) (O60674 whole entry): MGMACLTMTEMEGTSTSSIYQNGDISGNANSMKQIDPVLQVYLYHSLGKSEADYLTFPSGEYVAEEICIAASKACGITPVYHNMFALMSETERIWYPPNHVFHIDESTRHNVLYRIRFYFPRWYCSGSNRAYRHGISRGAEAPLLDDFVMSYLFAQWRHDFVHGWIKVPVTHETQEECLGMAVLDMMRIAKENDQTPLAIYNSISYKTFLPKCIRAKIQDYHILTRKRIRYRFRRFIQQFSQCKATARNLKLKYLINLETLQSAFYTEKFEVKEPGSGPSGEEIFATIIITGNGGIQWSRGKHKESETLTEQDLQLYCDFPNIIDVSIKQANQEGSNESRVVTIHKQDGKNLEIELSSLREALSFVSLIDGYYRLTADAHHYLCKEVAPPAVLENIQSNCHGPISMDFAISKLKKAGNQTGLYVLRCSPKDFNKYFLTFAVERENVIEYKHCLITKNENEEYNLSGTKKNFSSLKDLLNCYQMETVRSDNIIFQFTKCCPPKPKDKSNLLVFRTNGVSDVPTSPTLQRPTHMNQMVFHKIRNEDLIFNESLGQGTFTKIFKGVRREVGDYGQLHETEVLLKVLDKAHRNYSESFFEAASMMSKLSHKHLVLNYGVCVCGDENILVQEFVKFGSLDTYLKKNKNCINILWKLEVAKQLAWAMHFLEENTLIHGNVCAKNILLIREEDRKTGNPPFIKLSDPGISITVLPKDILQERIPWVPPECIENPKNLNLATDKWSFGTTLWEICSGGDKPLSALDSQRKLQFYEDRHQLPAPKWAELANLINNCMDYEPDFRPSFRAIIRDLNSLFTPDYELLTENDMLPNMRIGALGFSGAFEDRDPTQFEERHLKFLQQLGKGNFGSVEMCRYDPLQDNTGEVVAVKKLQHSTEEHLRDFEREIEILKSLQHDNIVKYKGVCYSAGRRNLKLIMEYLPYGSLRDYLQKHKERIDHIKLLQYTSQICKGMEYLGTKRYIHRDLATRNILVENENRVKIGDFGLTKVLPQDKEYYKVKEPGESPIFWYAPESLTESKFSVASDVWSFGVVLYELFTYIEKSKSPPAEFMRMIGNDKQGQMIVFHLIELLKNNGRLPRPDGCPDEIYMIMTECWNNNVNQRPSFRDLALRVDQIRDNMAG

Abl(h) = Abl(h) (Homo sapiens, UniProt P00519); assay type: biochemical
Sequence of Abl(h) (P00519 whole entry): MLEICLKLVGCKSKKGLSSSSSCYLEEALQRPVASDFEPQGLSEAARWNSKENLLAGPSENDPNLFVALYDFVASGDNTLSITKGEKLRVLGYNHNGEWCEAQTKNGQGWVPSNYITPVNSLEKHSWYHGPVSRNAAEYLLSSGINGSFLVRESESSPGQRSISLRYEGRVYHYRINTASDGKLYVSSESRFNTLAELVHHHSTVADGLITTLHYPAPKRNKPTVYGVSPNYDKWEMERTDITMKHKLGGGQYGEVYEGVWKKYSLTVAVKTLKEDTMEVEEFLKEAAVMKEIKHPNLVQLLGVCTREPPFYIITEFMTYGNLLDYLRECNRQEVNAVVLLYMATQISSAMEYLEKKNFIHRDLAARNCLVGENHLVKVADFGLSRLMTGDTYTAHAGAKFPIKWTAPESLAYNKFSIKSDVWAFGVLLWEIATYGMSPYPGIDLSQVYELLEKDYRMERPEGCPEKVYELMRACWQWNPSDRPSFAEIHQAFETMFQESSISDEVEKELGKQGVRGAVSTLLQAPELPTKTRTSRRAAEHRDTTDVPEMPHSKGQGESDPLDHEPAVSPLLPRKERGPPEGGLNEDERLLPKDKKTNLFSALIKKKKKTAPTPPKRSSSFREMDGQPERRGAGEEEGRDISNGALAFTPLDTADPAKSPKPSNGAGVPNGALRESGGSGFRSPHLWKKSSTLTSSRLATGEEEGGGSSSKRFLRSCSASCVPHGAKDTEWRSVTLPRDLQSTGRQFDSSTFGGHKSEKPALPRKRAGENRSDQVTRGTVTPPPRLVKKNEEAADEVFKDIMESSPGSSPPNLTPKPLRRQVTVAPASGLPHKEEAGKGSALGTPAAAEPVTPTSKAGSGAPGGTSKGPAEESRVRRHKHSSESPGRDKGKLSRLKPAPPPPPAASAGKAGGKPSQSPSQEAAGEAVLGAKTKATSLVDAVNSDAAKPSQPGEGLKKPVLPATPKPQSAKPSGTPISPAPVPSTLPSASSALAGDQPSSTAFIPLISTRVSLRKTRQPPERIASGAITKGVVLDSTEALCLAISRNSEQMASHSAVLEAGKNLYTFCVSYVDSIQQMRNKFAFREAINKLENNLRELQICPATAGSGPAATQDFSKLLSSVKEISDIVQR

MLCK(h) = assay type: biochemical, human
DAPK1(h) = DAPK1(h) (Homo sapiens, UniProt P53355); assay type: biochemical
Met(Y1248C)(h) = Met(Y1248C)(h) (Homo sapiens, UniProt P08581, Y1230C); assay type: biochemical
Fms(Y969C)(h) = Fms(Y969C)(h) (Homo sapiens, UniProt P07333, Y969C); assay type: biochemical
MEK1(h) = MEK1(h) (Homo sapiens, UniProt Q02750); assay type: biochemical
Rsk2(h) = Rsk2(h) (Homo sapiens, UniProt P51812); assay type: biochemical
Sequence of Rsk2(h) (P51812 whole entry): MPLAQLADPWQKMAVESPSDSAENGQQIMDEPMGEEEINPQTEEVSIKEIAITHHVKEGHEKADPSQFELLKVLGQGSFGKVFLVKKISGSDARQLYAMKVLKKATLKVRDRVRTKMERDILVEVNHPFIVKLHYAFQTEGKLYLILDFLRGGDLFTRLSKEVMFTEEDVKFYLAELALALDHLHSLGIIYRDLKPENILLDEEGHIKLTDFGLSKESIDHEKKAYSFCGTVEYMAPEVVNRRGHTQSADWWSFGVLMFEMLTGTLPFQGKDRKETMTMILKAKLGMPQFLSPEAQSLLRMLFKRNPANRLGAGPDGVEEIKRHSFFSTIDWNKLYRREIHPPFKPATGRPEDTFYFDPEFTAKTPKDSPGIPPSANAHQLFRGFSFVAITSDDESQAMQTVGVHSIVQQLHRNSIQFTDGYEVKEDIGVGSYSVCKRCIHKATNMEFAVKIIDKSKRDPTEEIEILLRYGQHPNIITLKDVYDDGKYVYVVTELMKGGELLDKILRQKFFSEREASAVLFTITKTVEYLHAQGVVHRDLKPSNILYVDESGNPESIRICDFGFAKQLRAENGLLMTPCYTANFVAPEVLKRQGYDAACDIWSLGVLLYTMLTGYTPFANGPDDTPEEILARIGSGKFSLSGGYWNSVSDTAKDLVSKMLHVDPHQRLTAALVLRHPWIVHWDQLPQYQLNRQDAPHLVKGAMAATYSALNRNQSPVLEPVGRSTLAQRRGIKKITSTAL

CaMKIIβ(h) = CaMKIIβ(h) (Homo sapiens, UniProt Q13554); assay type: biochemical
Sequence of CaMKIIβ(h) (Q13554 whole entry): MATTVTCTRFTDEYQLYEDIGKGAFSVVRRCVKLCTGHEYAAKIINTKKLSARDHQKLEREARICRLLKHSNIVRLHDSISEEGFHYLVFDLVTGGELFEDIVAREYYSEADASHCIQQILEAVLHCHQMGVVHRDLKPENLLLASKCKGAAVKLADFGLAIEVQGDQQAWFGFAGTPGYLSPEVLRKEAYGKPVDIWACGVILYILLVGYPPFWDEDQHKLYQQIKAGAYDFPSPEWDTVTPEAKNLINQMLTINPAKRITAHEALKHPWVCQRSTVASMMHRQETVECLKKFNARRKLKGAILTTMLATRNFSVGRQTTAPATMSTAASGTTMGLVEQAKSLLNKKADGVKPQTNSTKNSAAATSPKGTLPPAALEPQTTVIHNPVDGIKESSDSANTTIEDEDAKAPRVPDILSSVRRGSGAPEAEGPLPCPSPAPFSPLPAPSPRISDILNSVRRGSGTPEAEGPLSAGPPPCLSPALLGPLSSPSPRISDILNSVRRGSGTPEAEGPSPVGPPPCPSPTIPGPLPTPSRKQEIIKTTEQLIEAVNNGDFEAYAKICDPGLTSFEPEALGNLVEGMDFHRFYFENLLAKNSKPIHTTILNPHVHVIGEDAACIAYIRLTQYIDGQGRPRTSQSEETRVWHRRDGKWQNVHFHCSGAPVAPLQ

VRK2(h) = VRK2(h) (Homo sapiens, UniProt Q86Y07); assay type: biochemical
PKG1β(h) = target: T2, PKG1β(h) (Homo sapiens, UniProt Q13976); assay type: biochemical
T2 sequence (Q13976 1-686 isoform Q13976-2): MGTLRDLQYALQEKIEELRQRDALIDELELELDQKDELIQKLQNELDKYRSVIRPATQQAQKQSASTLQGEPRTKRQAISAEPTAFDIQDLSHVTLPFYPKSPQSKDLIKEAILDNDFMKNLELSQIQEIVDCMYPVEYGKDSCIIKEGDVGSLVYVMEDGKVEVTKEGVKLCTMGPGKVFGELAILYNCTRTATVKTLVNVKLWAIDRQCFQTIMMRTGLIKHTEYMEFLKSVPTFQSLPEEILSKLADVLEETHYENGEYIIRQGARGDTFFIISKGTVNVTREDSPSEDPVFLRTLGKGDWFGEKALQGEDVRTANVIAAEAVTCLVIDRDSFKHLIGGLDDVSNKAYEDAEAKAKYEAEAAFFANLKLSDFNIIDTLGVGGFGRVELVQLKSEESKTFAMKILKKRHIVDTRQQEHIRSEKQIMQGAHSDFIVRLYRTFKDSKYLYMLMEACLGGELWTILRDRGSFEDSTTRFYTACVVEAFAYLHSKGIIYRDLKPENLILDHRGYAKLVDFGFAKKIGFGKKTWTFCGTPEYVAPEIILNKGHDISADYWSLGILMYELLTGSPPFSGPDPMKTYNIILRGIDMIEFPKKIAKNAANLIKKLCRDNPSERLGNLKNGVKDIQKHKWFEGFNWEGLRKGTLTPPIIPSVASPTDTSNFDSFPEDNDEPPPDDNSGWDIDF

Fyn(h) = Fyn(h) (Homo sapiens, UniProt P06241); assay type: biochemical
Sequence of Fyn(h) (P06241 whole entry): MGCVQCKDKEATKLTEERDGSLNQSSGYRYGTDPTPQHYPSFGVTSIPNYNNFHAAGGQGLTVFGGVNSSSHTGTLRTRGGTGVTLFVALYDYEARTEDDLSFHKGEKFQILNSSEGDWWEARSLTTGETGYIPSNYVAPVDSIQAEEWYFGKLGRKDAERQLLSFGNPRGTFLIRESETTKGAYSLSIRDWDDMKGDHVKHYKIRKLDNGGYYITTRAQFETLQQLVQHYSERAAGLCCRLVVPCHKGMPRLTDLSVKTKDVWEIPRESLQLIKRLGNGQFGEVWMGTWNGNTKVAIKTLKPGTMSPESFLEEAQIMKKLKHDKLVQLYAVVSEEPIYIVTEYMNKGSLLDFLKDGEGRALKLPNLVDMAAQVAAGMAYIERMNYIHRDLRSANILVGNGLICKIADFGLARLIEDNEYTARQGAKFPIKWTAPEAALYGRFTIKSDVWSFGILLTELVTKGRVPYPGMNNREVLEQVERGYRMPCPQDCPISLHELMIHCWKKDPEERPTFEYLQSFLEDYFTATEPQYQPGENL

CDK5/p25(h) = CDK5/p25(h) (Homo sapiens, UniProt Q00535); assay type: biochemical
PKBα(h) = PKBα(h) (Homo sapiens, UniProt P31749); assay type: biochemical
Rsk3(h) = Rsk3(h) (Homo sapiens, UniProt Q15349); assay type: biochemical
Sequence of Rsk3(h) (Q15349 whole entry): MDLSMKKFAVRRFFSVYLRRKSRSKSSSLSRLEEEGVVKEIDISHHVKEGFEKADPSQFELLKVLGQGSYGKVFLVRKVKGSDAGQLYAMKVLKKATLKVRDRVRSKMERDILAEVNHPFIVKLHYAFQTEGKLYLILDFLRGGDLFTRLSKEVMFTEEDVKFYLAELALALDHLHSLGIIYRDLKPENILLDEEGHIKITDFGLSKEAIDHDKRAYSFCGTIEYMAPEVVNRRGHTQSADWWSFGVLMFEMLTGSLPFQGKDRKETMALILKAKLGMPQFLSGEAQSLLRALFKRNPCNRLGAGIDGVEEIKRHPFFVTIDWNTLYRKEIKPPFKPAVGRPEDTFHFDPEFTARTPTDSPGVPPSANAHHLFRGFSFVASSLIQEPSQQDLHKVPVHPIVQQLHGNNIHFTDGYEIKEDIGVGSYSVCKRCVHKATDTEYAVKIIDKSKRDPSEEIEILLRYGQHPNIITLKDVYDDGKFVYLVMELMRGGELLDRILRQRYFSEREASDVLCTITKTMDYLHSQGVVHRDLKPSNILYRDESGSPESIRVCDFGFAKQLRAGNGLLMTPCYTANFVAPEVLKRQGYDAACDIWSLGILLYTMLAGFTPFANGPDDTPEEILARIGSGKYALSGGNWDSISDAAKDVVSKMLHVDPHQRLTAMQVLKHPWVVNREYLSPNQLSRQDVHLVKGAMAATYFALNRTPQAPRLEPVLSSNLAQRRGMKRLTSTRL

CDK9/cyclin T1(h) = CDK9/cyclin T1(h) (Homo sapiens, UniProt P50750); assay type: biochemical

Sequence	% activity (IRR(h))	% activity (SAPK4(h))	% activity (JAK2(h))	% activity (Abl(h))	% activity (MLCK(h))	% activity (DAPK1(h))	% activity (Met(Y1248C)(h))	% activity (Fms(Y969C)(h))	% activity (MEK1(h))	% activity (Rsk2(h))	% activity (CaMKIIβ(h))	% activity (VRK2(h))	% activity (PKG1β(h))	% activity (Fyn(h))	% activity (CDK5/p25(h))	% activity (PKBα(h))	% activity (Rsk3(h))	% activity (CDK9/cyclin T1(h))
FAKLAARLYRKALARQLGVAA [MMI-0300]	8%	96%	133%	69%	2%	46%	84%	72%	77%	51%	2%	161%	50%	74%	89%	57%	76%	91%
KAFAKLAARLYRKALARQLGVAA [MMI-0400]	8%	91%	–	84%	1%	36%	36%	91%	77%	38%	11%	185%	53%	54%	92%	67%	71%	235%
HRRIKAWLKKIKALARQLGVAA [MMI-0500]	10%	48%	49%	16%	0%	0%	73%	–	21%	14%	3%	169%	24%	83%	66%	30%	23%	6%
YARAAARQARAKALNRQLGVA [MMI-0200]	69%	–	131%	–	103%	–	141%	88%	–	101%	53%	–	57%	75%	97%	110%	–	–
